Measurements as given in patent US20190241662A1.
Where two headings read alike, the source gives them in different places.

Columns and labels:
[1] = target: CTLA4 on activated monkey T cells; test: flow cytometry, activated monkey CD4+ T cells, APC-labelled antibody; lower right quadrant […]
[2] = target: human Tim3 on HEK293F cells (human) (UniProt Q8TDQ0); test: flow cytometry, transfected HEK293F cells, 100 nM antibody [Cont.]
[3] = target: human B7H3 on HEK293F cells (human) (UniProt Q5ZPR3); test: as above
[4] = target: full-length human CTLA4 expressed on cells (human) (UniProt P16410); test: flow cytometry, activated human CD4+ T cells, APC-labelled antibody; lower right quadrant 0%
[5] = target: full-length human CTLA4 expressed on cells (human) (UniProt P16410); test: flow cytometry, transfected HEK293F cells, 100 nM antibody
[6] = target: human PD1 on HEK293F cells (human) (UniProt Q15116); test: as above
[7] = target: human LAG3 on HEK293F cells (human) (UniProt P18627); test: as above
[8] = target: CTLA4 on activated mouse T cells (mouse) (UniProt P09793); test: flow cytometry, activated mouse CD4+ T cells, APC-labelled antibody; lower right quadrant 0.043%
[9] = target: human Tim3 on HEK293F cells (human) (UniProt Q8TDQ0); test: flow cytometry, transfected HEK293F cells, 100 nM antibody
[10] = target: full-length human CTLA4 expressed on cells (human) (UniProt P16410); test: as above; remark: listed apart in the source
[11] = target: human PD-L1 on HEK293F cells (human) (UniProt Q9NZQ7); test: as above
[12] = target: human LAG3 on HEK293F cells (human) (UniProt P18627); test: as above; remark: listed apart in the source
[13] = target: full-length mouse CTLA4 expressed on HEK293F cells (mouse) (UniProt P09793); test: flow cytometry, transfected HEK293F cells, antibody concentration not printed [Cont.]
full-length mouse CTLA4 expressed on HEK293F cells (mouse), sequence (P09793 36-223): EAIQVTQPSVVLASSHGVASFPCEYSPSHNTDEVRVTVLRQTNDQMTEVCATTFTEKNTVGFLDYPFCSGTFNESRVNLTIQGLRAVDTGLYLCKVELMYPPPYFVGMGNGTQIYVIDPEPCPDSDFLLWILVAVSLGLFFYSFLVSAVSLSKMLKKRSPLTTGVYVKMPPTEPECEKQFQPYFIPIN

human Tim3 on HEK293F cells (human), sequence (Q8TDQ0 22-301): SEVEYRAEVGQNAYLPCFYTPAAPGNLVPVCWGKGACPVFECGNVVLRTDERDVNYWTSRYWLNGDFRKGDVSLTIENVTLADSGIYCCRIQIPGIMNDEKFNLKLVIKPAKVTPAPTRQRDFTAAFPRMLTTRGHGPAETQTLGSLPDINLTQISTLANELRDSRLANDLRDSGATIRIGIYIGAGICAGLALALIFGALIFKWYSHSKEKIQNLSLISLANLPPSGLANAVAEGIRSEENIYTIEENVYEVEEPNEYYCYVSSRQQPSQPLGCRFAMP
human LAG3 on HEK293F cells (human), sequence (P18627 23-525): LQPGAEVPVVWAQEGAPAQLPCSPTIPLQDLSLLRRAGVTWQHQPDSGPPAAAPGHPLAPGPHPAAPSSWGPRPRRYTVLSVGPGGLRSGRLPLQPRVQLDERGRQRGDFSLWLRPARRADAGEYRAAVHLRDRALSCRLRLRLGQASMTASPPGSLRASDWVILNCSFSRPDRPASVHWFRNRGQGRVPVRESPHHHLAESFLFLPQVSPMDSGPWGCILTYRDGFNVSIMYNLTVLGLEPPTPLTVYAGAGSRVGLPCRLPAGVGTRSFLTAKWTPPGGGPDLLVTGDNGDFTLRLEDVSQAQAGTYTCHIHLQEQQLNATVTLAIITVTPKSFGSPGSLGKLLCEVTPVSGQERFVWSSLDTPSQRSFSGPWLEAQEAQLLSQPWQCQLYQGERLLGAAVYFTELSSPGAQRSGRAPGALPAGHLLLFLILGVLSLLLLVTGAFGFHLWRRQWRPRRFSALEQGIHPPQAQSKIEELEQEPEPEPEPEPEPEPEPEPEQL
full-length human CTLA4 expressed on cells (human), sequence (P16410 36-223): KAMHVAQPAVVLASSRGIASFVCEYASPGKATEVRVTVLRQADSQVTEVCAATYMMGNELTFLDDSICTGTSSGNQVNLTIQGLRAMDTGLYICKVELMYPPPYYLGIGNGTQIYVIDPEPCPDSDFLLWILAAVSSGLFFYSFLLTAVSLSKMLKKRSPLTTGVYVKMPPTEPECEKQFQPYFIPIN
human PD-L1 on HEK293F cells (human), sequence (Q9NZQ7 19-290): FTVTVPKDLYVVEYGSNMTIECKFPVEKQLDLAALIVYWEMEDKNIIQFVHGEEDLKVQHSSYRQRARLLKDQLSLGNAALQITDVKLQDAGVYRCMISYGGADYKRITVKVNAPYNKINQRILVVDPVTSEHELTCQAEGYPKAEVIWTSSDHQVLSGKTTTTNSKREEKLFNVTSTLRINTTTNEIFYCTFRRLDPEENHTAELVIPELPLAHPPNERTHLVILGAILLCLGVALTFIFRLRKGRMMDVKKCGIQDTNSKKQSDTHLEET
CTLA4 on activated mouse T cells (mouse), sequence (P09793 36-223 limits assumed): as the sequence (P09793 36-223) above
CTLA4 on activated monkey T cells, sequence (chain, as listed by the source limits assumed): as the sequence (P16410 36-223) above, with S14N, I18T, L106M counted along it
human B7H3 on HEK293F cells (human), sequence (Q5ZPR3 29-534): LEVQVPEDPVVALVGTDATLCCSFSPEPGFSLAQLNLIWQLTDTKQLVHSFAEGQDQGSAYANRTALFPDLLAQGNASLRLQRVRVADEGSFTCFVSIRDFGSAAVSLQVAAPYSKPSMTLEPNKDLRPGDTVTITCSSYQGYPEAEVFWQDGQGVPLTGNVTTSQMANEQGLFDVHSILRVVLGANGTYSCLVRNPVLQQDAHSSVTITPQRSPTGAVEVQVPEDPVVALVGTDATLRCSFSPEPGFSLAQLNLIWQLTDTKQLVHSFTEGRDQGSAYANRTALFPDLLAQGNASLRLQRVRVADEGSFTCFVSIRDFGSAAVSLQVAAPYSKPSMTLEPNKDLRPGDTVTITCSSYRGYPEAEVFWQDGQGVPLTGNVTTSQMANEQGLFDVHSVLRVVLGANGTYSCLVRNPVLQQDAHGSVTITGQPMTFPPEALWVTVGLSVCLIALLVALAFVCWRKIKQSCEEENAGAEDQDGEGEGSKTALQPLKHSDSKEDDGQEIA
human PD1 on HEK293F cells (human), sequence (Q15116 25-288): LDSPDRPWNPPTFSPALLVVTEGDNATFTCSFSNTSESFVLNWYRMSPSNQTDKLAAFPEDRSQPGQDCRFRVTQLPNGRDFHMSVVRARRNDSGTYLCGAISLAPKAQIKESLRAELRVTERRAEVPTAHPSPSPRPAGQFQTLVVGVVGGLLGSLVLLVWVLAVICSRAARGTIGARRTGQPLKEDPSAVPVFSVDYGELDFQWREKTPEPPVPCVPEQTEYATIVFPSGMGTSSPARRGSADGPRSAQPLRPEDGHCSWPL

% of cells in upper right quadrant (APC-positive) [1]: 6.27%
% of cells in upper right quadrant (Q2) [2]: 1.06%
% of cells in upper right quadrant (Q2) [3]: 1.72%
% of cells in upper right quadrant (APC-positive) [4]: 0.034%
% of cells in upper right quadrant (Q2) [5]: 1.79%
% of cells in upper right quadrant (Q2) [6]: 0.99%
% of cells in upper right quadrant (Q2) [7]: 2.1%
% of cells in upper right quadrant (APC-positive) [8]: 1.98%
% of cells in upper right quadrant (Q2) [9]: 0.055%
Mean [9]: 3200
% of cells in upper right quadrant (Q2) [10]: 0.45%
Mean [10]: 48000
% of cells in upper right quadrant (Q2) [11]: 0.27%
Mean [11]: 36300
% of cells in upper right quadrant (Q2) [12]: 0.17%
Mean [12]: 3550
% of cells in upper right quadrant (Q2) [13]: 0.23
Mean [13]: 3700
Substance: isotype control antibody (human IgG1)
